Results on three molecules are retold here after patent publication US20210338751A1.

Assay [1] has as its target GII.10 VLPs (human norovirus genotype GII.10). The assay is described as follows: blocking of GII.10 VLP binding to pig gastric mucin (HBGA).
In assay [2] the target is recombinant HuNoV GII.10 P domain (Human Norovirus (HuNoV) GII.10). The assay can be described thus: ELISA on recombinant P domain. (An ELISA detects its analyte on a solid surface through an enzyme-linked reagent.)
In assay [3] the target is recombinant HuNoV GII.17 P domain (Human Norovirus (HuNoV) GII.17). The assay is described as follows: ELISA on recombinant P domain.
Assay [4] deals with recombinant HuNoV GII.3 P domain (Human Norovirus (HuNoV) GII.3). The assay is described as follows: ELISA on recombinant P domain.
The target in assay [5] is recombinant HuNoV GII.4 P domain (Human Norovirus (HuNoV) GII.4). The assay can be described thus: ELISA on recombinant P domain.
The target of assay [6] is recombinant HuNoV GI.1 P domain (Human Norovirus (HuNoV) GI.1). The assay can be described thus: ELISA on recombinant HuNoV GI.1 P domain, Spirulina-expressed Ni-NTA purified protein after freeze-drying.
For assay [7] the target is unchanged. The assay is described as follows: ELISA on recombinant HuNoV GI.1 P domain, Spirulina-expressed Ni-NTA purified protein, sample B1, not freeze-dried.
The target is the same in assay [8]. The assay is described as follows: ELISA on recombinant HuNoV GI.1 P domain, Spirulina-expressed Ni-NTA purified protein, sample B2, not freeze-dried.

B1: SP828 (VHH)
VHH: QVQLQESGGGLVQSGGSLRLSCAASRNINSMHVVGWYRQAPGNQRELVASITDDGSTDYVDSVKGRFTISRDIAENTVYLQMNSLNPEDTAVYYCKGTIVVFTTPMHYWGKGTQVTVSS
B1: the IC50 (read off the curve) in assay [1] was determined as 1 µg/mL.

B2: Nano26-TxnA (VHH, not shown: large carriers)
VHH: QVQLQESGGGLVQPGGSLRLSCTAPRIIFFMYDVGWYRQAPEKQRELVAQINSDVSTKYADSVKGRFTISRDNAKRTVYLQMNDLKPEDAAVYYCNVRRASADYWGQGTQVTVSS
A word on the EC50: it is the concentration giving half of the maximal effect. Turning to B2, the EC50 in assay [2] came out at 1.46 nM; in assay [3], 2.52 nM; in assay [4], 4.46 nM; in assay [5] it was 15.4 nM.

B3: Nano94 (no chaperone partner) (VHH)
VHH: QVQLQESGGGLVQAGGSLRLSCAASGRMFSINSMGWYRQAPGKERELVATISEAGTTTYADSVRGRFTIARDNAKNTVYLQMNSLNPEDTAVYYCNAYIQLDSTIWFRAYWGQGTQVTVSS
Consider B3, for which the concentration giving a half-maximal response (EC50) was determined as 25.9 nM in assay [6], 21.2 nM in assay [7] and 17.1 nM in assay [8].
